In patent publication US20190233519A1 (published 2019):
Read-outs that look alike come from different tables or passages of the source.

Columns and labels:
[1] = molecular target: T1, human CTLA-4 expressed on CHO cells (UniProt P16410 37-223); assay: FACS cell binding
[2] = molecular target: T2, CTLA-4-His protein (UniProt P16410 37-161); assay: SPR
[3] = molecular target: T3, biotin-labeled hCTLA-4/Fc protein (UniProt P16410 37-161, biotin label in the FACS competition assays (sites not given)); assay: FACS ligand competition
[4] = molecular target: T1, human CTLA-4 expressed on CHO cells; assay: FACS cell binding; remark: listed apart in the source
[5] = molecular target: T4, human PD-1 expressed on CHO cells (human, UniProt Q15116 25-288); assay: FACS cell binding
[6] = molecular target: T5, PD-1-His protein (UniProt Q15116 25-167); assay: SPR
[7] = molecular target: hPD-1-Fc fusion protein having a biotin label (human, UniProt Q15116 25-167, biotin label (sites not given)); assay: FACS ligand competition
[8] = molecular target: T2, CTLA-4-His protein; assay: SPR; remark: listed apart in the source
[9] = molecular target: T3, biotin-labeled hCTLA-4/Fc protein; assay: FACS ligand competition; remark: listed apart in the source
[10] = molecular target: T3, biotin-labeled hCTLA-4/Fc protein; assay: FACS ligand competition (B7-1 cells)
[11] = molecular target: CTLA-4/Fc; assay: SPR
[12] = molecular target: T2, CTLA-4-His protein; assay: SPR; remark: listed apart in the source
[13] = molecular target: T4, human PD-1 expressed on CHO cells; assay: FACS ligand competition (hPD-L1 Fc)
[14] = molecular target: T5, PD-1-His protein; assay: SPR; remark: listed apart in the source
[15] = molecular target: T3, biotin-labeled hCTLA-4/Fc protein; assay: FACS ligand competition (B7-1 cells); remark: listed apart in the source

Chain of hPD-1-Fc fusion protein having a biotin label (Q15116 25-167): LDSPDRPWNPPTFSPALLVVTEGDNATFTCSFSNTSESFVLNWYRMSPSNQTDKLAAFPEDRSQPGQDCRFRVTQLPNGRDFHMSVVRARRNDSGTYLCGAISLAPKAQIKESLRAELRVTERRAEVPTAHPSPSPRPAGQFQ
T5 sequence (Q15116 25-167): as above
T1 sequence (P16410 37-223): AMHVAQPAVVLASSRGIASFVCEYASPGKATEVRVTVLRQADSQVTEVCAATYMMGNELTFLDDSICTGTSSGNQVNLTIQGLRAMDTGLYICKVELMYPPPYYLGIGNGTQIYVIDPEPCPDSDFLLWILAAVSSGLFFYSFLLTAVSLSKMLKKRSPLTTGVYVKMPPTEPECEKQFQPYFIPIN
T3 sequence (P16410 37-161): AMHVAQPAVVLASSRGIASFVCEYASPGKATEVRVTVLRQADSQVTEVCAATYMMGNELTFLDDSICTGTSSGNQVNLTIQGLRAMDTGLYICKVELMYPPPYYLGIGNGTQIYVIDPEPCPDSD
T2 sequence (P16410 37-161): as above
T4 sequence (Q15116 25-288): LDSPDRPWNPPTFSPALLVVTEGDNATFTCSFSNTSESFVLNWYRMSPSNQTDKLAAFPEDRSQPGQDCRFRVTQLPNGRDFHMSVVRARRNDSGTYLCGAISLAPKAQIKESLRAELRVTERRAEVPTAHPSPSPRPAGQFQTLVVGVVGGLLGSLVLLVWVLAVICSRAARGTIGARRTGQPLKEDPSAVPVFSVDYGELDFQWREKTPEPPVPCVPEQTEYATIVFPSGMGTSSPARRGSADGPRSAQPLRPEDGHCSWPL

| Binder | IC50 [3] [nM] | EC50 [4] [nM] | EC50 [5] [nM] | Kd [6] [nM] | IC50 [7] [nM] | Kd [8] [nM] | IC50 [9] [nM] | other results |
| --- | --- | --- | --- | --- | --- | --- | --- | --- |
| AS07014 HCAb (Fc fusion) heavy: QVHLVESGGGSVQAGGSLRLSCAASGYTYSRHCLGWFRQTPGKEREAVATIDSDGSTSYADSVKGRFTISSDNAKNTLYLQMNSLKPEDTAMYYCAIGPNPRYCSGAPNTRGAEHYFGYWAQGTQVTVSS | 12.3 | – | – | – | – | – | – | EC50 [1]: 15.3 nM; Kd [2]: 1.1 nM |
| A36922 HCAb (Fc fusion) heavy: QVQLVESGGGLVQAGGSLRLSCAASGRLSRTFTMGWYRQAPGKQRDLVASITTSGSTNYADSVKGRFTISRDNAKNTVILQMNSLVPEDTAVYYCRFLSASTAAWGQGTQVTIST | 14.1 | – | – | – | – | – | – | IC50 [10]: 14.1 nM |
| AS02640 sdAb (VHH) VHH: QVQLVESGGGVVQPGRSLRLSCAASGRTITTITMGWFRQAPGKGLEFVASHSWTDNNPYYADSVKGRFIISRDNSKNRLYLQMNSLRAEDTAVYYCAATARRSFVGRQWYTEARQYDYWGQGTLVTVSS | – | – | – | – | – | – | – | Kd [11]: 2.95 nM |
| A36566 HCAb (Fc fusion) heavy: EVQLVESGGGLVQVGDSLRLSCAASGRSFENYAIGWFRQAPGKEREFVATISWIPRTAYSTTYYADSVKGRFTISGDNSKNTVYLQMTSLKPEDTAVYYCAAGGATGPLALDSHYGYWGQGTQVTVSS | 6.6 | – | – | – | – | – | – | IC50 [10]: 6.6 nM |
| A34311 sdAb (VHH) VHH: QVKLEESGGGLVLPGESLRLSCEASGRTITTITMGWFRQAPGKERQFVASHSWTDNNPYYADSVKGRFIISRDNAGNRVYLQMHSLEPEDTAVYYCAATARRSFVGRQWYTEARQYDYWGQGTQVTVSS | – | – | – | – | – | – | – | Kd [11]: 4.96 nM |

Continued, in another order:

| IC50 [3] [nM] | EC50 [4] [nM] | EC50 [5] [nM] | Kd [6] [nM] | IC50 [7] [nM] | Kd [8] [nM] | IC50 [9] [nM] | Binder | other results |
| --- | --- | --- | --- | --- | --- | --- | --- | --- |
| 11.9 | – | – | – | – | – | – | AS07189 HCAb (Fc fusion) heavy: QVQLVESGGGSVQAGGSLRLSCAASGDSPSVNYMGWFRRAPEKQREQREEVASIYPTGGTFYTDSVKGRFTISRDNAKNTLYLQMTALKPEDTAMYYCAAGKWGTDYWGQGTQVIVSS | EC50 [1]: 6.8 nM; Kd [2]: 3 nM |
| – | 2.7 | 1.7 | 8.1 | 4.8 | 6.6 | 7.1 | BCP-78 (A34311VH11-mutated hIgG1 hinge-Opdivo) (bispecific antibody) heavy: EVQLVESGGGVVQPGRSLRLSCAASGRTITTITMGWFRQAPGKGREFVASHSWTDNNPYYADSVKGRFTISRDNAKNTLYLQMNSLRPEDTAVYYCAATARRSFVGRQWYTEARQYDYWGQGTLVTVSSEPKSSDKTHTSPPSPQVQLVESGGGVVQPGRSLRLDCKASGITFSNSGMHWVRQAPGKGLEWVAVIWYDGSKRYYADSVKGRFTISRDNSKNTLFLQMNSLRAEDTAVYYCATNDDYWGQGTLVTVSSASTKGPSVFPLAPCSRSTSESTAALGCLVKDYFPEPVTVSWNSGALTSGVHTFPAVLQSSGLYSLSSVVTVPSSSLGTKTYTCNVDHKPSNTKVDKRVESKYGPPCPPCPAPEFLGGPSVFLFPPKPKDTLMISRTPEVTCVVVDVSQEDPEVQFNWYVDGVEVHNAKTKPREEQFNSTYRVVSVLTVLHQDWLNGKEYKCKVSNKGLPSSIEKTISKAKGQPREPQVYTLPPSQEEMTKNQVSLTCLVKGFYPSDIAVEWESNGQPENNYKTTPPVLDSDGSFFLYSRLVDKSRWQEGNVFSCSVMHEALHNHYTQKSLSLSLGK light: not shown | – |
| – | – | – | – | – | 28 | – | BCP-2 (BCP-K311) (Keytruda-9GS-A34311) (bispecific antibody) heavy: not shown light: EIVLTQSPATLSLSPGERATLSCRASKGVSTSGYSYLHWYQQKPGQAPRLLIYLASYLESGVPARFSGSGSGTDFTLTISSLEPEDFAVYYCQHSRDLPLTFGGGTKVEIKRTVAAPSVFIFPPSDEQLKSGTASVVCLLNNFYPREAKVQWKVDNALQSGNSQESVTEQDSKDSTYSLSSTLTLSKADYEKHKVYACEVTHQGLSSPVTKSFNRGEC | Kd [12]: 28.4 nM; IC50 [13]: 16.5 nM; Kd [14]: 7.63 nM |
| – | 3.9 | 1.6 | 2.5 | 2.6 | 2.6 | 17.2 | BCP-74 (AS07014VH11-mutated hIgG1 hinge-Keytruda) (bispecific antibody) heavy: not shown light: EIVLTQSPATLSLSPGERATLSCRASKGVSTSGYSYLHWYQQKPGQAPRLLIYLASYLESGVPARFSGSGSGTDFTLTISSLEPEDFAVYYCQHSRDLPLTFGGGTKVEIKRTVAAPSVFIFPPSDEQLKSGTASVVCLLNNFYPREAKVQWKVDNALQSGNSQESVTEQDSKDSTYSLSSTLTLSKADYEKHKVYACEVTHQGLSSPVTKSFNRGEC | – |
| – | 3 | 1.6 | 2.2 | 1.5 | 4 | 11.7 | BCP-75 (AS07189TKDVH11-mutated hIgG1 hinge-Keytruda) (bispecific antibody) heavy: not shown light: EIVLTQSPATLSLSPGERATLSCRASKGVSTSGYSYLHWYQQKPGQAPRLLIYLASYLESGVPARFSGSGSGTDFTLTISSLEPEDFAVYYCQHSRDLPLTFGGGTKVEIKRTVAAPSVFIFPPSDEQLKSGTASVVCLLNNFYPREAKVQWKVDNALQSGNSQESVTEQDSKDSTYSLSSTLTLSKADYEKHKVYACEVTHQGLSSPVTKSFNRGEC | – |
| – | 3 | 2.2 | 7.5 | 1.1 | 7.5 | 11.5 | BCP-73 (A34311VH11-mutated hIgG1 hinge-Keytruda) (bispecific antibody) heavy: not shown light: EIVLTQSPATLSLSPGERATLSCRASKGVSTSGYSYLHWYQQKPGQAPRLLIYLASYLESGVPARFSGSGSGTDFTLTISSLEPEDFAVYYCQHSRDLPLTFGGGTKVEIKRTVAAPSVFIFPPSDEQLKSGTASVVCLLNNFYPREAKVQWKVDNALQSGNSQESVTEQDSKDSTYSLSSTLTLSKADYEKHKVYACEVTHQGLSSPVTKSFNRGEC | – |
| – | – | – | – | – | 13 | – | BCP-311K (A34311-9GS-Keytruda) (bispecific antibody) heavy: not shown light: EIVLTQSPATLSLSPGERATLSCRASKGVSTSGYSYLHWYQQKPGQAPRLLIYLASYLESGVPARFSGSGSGTDFTLTISSLEPEDFAVYYCQHSRDLPLTFGGGTKVEIKRTVAAPSVFIFPPSDEQLKSGTASVVCLLNNFYPREAKVQWKVDNALQSGNSQESVTEQDSKDSTYSLSSTLTLSKADYEKHKVYACEVTHQGLSSPVTKSFNRGEC | Kd [12]: 13 nM; IC50 [13]: 33.7 nM; Kd [14]: 11.1 nM; EC50 [15]: 41.9 nM |
